T1: PDZRN3_1, Q9UPQ7
T1 sequence (Q9UPQ7 244-349, limits assumed, looked up): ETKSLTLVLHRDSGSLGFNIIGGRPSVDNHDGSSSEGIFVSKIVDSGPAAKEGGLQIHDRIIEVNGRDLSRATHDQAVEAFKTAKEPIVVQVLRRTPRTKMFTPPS

T2: SNTG1, Q9NSN8
T2 sequence (Q9NSN8 52-150, limits assumed, looked up): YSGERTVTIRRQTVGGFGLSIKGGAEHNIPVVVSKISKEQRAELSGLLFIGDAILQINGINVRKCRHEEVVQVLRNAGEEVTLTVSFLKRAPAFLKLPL

T3: SYNJ2BP, P57105
T3 sequence (P57105 8-110, limits assumed, looked up): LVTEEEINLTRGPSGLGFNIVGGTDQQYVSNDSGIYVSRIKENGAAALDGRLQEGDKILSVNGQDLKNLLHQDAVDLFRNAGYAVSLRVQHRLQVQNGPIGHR

T4: MPP6, Q9NZW5
T4 sequence (Q9NZW5 125-219, limits assumed, looked up): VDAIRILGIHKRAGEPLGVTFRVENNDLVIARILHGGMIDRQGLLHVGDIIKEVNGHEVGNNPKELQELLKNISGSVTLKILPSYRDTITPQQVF

T5: DFNB31_2, Q9P202
T5 sequence (Q9P202 274-371, limits assumed, looked up): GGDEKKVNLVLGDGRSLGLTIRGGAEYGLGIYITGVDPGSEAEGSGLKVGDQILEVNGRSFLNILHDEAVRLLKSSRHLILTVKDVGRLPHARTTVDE

T6: GRIP1_3, Q9Y3R0
T6 sequence (Q9Y3R0 247-346, limits assumed, looked up): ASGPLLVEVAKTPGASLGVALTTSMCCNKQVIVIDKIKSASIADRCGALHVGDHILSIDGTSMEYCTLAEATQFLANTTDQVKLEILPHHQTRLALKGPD

T7: ARHGAP21, Q5T5U3
T7 sequence (Q5T5U3 45-169, limits assumed, looked up): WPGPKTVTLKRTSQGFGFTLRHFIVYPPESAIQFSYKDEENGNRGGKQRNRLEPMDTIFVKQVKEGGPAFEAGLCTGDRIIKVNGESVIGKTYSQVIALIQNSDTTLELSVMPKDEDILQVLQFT

T8: NHERF3_1, Q5T2W1
T8 sequence (Q5T2W1 4-100, limits assumed, looked up): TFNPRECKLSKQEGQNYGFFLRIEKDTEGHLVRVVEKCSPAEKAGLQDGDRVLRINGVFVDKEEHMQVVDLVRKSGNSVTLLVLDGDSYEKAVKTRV

T9: DLG3_2, Q92796
T9 sequence (Q92796 221-321, limits assumed, looked up): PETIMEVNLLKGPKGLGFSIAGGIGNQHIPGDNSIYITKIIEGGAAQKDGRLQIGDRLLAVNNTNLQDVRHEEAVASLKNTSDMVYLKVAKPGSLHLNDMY

T10: MPP7, Q5T2T1
T10 sequence (Q5T2T1 134-230, limits assumed, looked up): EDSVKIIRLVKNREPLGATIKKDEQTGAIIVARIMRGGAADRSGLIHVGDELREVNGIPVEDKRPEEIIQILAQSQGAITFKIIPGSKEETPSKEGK

T11: LIN7B, Q9HAP6
T11 sequence (Q9HAP6 88-185, limits assumed, looked up): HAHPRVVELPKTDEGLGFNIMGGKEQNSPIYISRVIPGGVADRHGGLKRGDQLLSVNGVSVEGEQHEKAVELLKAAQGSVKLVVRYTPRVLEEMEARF

T12: HTRA4, P83105
T12 sequence (P83105 378-476, limits assumed, looked up): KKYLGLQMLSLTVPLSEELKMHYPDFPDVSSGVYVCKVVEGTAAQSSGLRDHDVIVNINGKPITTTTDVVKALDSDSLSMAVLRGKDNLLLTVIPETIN

B1: GNG4, P50150 (peptide)
chain: REKKFFCTIL
B2: TNRC6A, Q8NDV7 (peptide)
chain: DHLGGGGESM
B3: EPHB6, O15197 (peptide)
chain: HLRQQGSVEV

Target: MAGI1_2, Q96QZ7
Test: holdup assay
Set-up: key: below the threshold = too weak to quantify, mostly under pKd 3.1 to 4
Details: plain residues with an end cap or a label only (N-terminal biotin on a linker: ado-ado)

Sequence of MAGI1_2, Q96QZ7 (Q96QZ7 456-580): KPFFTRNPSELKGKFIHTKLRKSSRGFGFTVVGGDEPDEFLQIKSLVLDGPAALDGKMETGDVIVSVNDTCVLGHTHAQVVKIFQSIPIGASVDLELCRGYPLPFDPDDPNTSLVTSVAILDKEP

pKd	Binder
4.92	B1
below the threshold	B2
below the threshold	B3

Target: T1, PDZRN3_1, Q9UPQ7
Test: holdup assay
Set-up: key: below the threshold = too weak to quantify, mostly under pKd 3.1 to 4
Details: plain residues with an end cap or a label only (N-terminal biotin on a linker: ado-ado)

pKd	Binder
4.14	B1
below the threshold	B2
below the threshold	B3

Target: T2, SNTG1, Q9NSN8
Test: holdup assay
Set-up: key: below the threshold = too weak to quantify, mostly under pKd 3.1 to 4
Details: plain residues with an end cap or a label only (N-terminal biotin on a linker: ado-ado)

pKd	Binder
below the threshold	B1
below the threshold	B2
below the threshold	B3

Target: T3, SYNJ2BP, P57105
Test: holdup assay
Set-up: key: below the threshold = too weak to quantify, mostly under pKd 3.1 to 4
Details: plain residues with an end cap or a label only (N-terminal biotin on a linker: ado-ado)

pKd	Binder
4.27	B1
below the threshold	B2
below the threshold	B3

Target: GIPC2, Q8TF65
Test: holdup assay
Set-up: key: below the threshold = too weak to quantify, mostly under pKd 3.1 to 4
Details: plain residues with an end cap or a label only (N-terminal biotin on a linker: ado-ado)

Sequence of GIPC2, Q8TF65 (Q8TF65 112-203): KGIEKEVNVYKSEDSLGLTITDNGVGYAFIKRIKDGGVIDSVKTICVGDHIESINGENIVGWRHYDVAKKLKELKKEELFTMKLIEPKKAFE

pKd	Binder
below the threshold	B1
below the threshold	B2
below the threshold	B3

Target: Inadl_2, Q8NI35
Test: holdup assay
Set-up: key: below the threshold = too weak to quantify, mostly under pKd 3.1 to 4
Details: plain residues with an end cap or a label only (N-terminal biotin on a linker: ado-ado)

Sequence of Inadl_2, Q8NI35 (Q8NI35 238-335): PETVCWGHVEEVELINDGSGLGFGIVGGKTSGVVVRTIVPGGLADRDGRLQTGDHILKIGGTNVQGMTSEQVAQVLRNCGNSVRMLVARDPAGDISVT

pKd	Binder
below the threshold	B1
below the threshold	B2
below the threshold	B3

Target: T4, MPP6, Q9NZW5
Test: holdup assay
Set-up: key: below the threshold = too weak to quantify, mostly under pKd 3.1 to 4
Details: plain residues with an end cap or a label only (N-terminal biotin on a linker: ado-ado)

pKd	Binder
below the threshold	B1
3.69	B2
below the threshold	B3

Target: LDB3, O75112
Test: holdup assay
Set-up: key: below the threshold = too weak to quantify, mostly under pKd 3.1 to 4
Details: plain residues with an end cap or a label only (N-terminal biotin on a linker: ado-ado)

Sequence of LDB3, O75112 (O75112 1-94): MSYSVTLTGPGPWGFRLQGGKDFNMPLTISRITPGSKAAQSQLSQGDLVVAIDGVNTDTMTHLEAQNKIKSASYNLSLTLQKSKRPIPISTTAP

pKd	Binder
below the threshold	B1
below the threshold	B2
below the threshold	B3

Target: T5, DFNB31_2, Q9P202
Test: holdup assay
Set-up: key: below the threshold = too weak to quantify, mostly under pKd 3.1 to 4
Details: plain residues with an end cap or a label only (N-terminal biotin on a linker: ado-ado)

pKd	Binder
below the threshold	B1
below the threshold	B2
below the threshold	B3

Target: PICK1, Q9NRD5
Test: holdup assay
Set-up: key: below the threshold = too weak to quantify, mostly under pKd 3.1 to 4
Details: plain residues with an end cap or a label only (N-terminal biotin on a linker: ado-ado)

Sequence of PICK1, Q9NRD5 (Q9NRD5 17-115): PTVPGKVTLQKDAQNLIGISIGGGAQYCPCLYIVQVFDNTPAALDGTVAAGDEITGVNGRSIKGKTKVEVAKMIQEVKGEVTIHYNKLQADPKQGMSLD

pKd	Binder
below the threshold	B1
below the threshold	B2
below the threshold	B3

Target: GRIP2_5, Q9C0E4
Test: holdup assay
Set-up: key: below the threshold = too weak to quantify, mostly under pKd 3.1 to 4
Details: plain residues with an end cap or a label only (N-terminal biotin on a linker: ado-ado)

Sequence of GRIP2_5, Q9C0E4 (Q9C0E4 544-642): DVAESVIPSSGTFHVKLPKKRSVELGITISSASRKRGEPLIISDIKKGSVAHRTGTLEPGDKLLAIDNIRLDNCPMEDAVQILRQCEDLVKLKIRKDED

pKd	Binder
below the threshold	B1
below the threshold	B2
below the threshold	B3

Target: MAGI2_5, Q86UL8
Test: holdup assay
Set-up: key: below the threshold = too weak to quantify, mostly under pKd 3.1 to 4
Details: plain residues with an end cap or a label only (N-terminal biotin on a linker: ado-ado)

Sequence of MAGI2_5, Q86UL8 (Q86UL8 915-1017): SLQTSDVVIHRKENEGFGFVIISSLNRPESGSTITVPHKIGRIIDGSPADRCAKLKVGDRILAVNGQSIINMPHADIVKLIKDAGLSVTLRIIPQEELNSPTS

pKd	Binder
4.86	B1
below the threshold	B2
below the threshold	B3

Target: T6, GRIP1_3, Q9Y3R0
Test: holdup assay
Set-up: key: below the threshold = too weak to quantify, mostly under pKd 3.1 to 4
Details: plain residues with an end cap or a label only (N-terminal biotin on a linker: ado-ado)

pKd	Binder
below the threshold	B1
below the threshold	B2
below the threshold	B3

Target: GRIP2_7, Q9C0E4
Test: holdup assay
Set-up: key: below the threshold = too weak to quantify, mostly under pKd 3.1 to 4
Details: plain residues with an end cap or a label only (N-terminal biotin on a linker: ado-ado)

Sequence of GRIP2_7, Q9C0E4 (Q9C0E4 934-1023): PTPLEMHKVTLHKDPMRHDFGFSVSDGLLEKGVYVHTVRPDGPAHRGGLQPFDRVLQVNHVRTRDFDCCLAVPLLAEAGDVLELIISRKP

pKd	Binder
below the threshold	B1
below the threshold	B2
below the threshold	B3

Target: T7, ARHGAP21, Q5T5U3
Test: holdup assay
Set-up: key: below the threshold = too weak to quantify, mostly under pKd 3.1 to 4
Details: plain residues with an end cap or a label only (N-terminal biotin on a linker: ado-ado)

pKd	Binder
3.93	B1
below the threshold	B2
4.16	B3

Target: T8, NHERF3_1, Q5T2W1
Test: holdup assay
Set-up: key: below the threshold = too weak to quantify, mostly under pKd 3.1 to 4
Details: plain residues with an end cap or a label only (N-terminal biotin on a linker: ado-ado)

pKd	Binder
5.43	B1
below the threshold	B2
below the threshold	B3

Target: Inadl_10, Q8NI35
Test: holdup assay
Set-up: key: below the threshold = too weak to quantify, mostly under pKd 3.1 to 4
Details: plain residues with an end cap or a label only (N-terminal biotin on a linker: ado-ado)

Sequence of Inadl_10, Q8NI35 (Q8NI35 1673-1763): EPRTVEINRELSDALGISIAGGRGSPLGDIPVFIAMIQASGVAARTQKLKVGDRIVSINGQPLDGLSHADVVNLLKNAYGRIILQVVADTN

pKd	Binder
4.26	B1
below the threshold	B2
below the threshold	B3

Target: T9, DLG3_2, Q92796
Test: holdup assay
Set-up: key: below the threshold = too weak to quantify, mostly under pKd 3.1 to 4
Details: plain residues with an end cap or a label only (N-terminal biotin on a linker: ado-ado)

pKd	Binder
4.13	B1
below the threshold	B2
below the threshold	B3

Target: T10, MPP7, Q5T2T1
Test: holdup assay
Set-up: key: below the threshold = too weak to quantify, mostly under pKd 3.1 to 4
Details: plain residues with an end cap or a label only (N-terminal biotin on a linker: ado-ado)

pKd	Binder
3.49	B1
below the threshold	B2
below the threshold	B3

Target: MAGI3_2, Q5TCQ9
Test: holdup assay
Set-up: key: below the threshold = too weak to quantify, mostly under pKd 3.1 to 4
Details: plain residues with an end cap or a label only (N-terminal biotin on a linker: ado-ado)

Sequence of MAGI3_2, Q5TCQ9 (Q5TCQ9 398-503): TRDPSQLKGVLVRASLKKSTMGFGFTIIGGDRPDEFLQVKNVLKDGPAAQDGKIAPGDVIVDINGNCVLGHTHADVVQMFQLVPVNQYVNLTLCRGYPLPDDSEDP

pKd	Binder
4.87	B1
below the threshold	B2
below the threshold	B3

Target: Inadl_6, Q8NI35
Test: holdup assay
Set-up: key: below the threshold = too weak to quantify, mostly under pKd 3.1 to 4
Details: plain residues with an end cap or a label only (N-terminal biotin on a linker: ado-ado)

Sequence of Inadl_6, Q8NI35 (Q8NI35 1058-1167): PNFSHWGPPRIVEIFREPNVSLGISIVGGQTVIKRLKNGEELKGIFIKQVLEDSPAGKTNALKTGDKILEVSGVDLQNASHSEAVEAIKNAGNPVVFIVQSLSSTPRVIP

pKd	Binder
4.22	B1
below the threshold	B2
below the threshold	B3

Target: T11, LIN7B, Q9HAP6
Test: holdup assay
Set-up: key: below the threshold = too weak to quantify, mostly under pKd 3.1 to 4
Details: plain residues with an end cap or a label only (N-terminal biotin on a linker: ado-ado)

pKd	Binder
3.97	B1
below the threshold	B2
below the threshold	B3

Target: FRMPD2_3, Q68DX3
Test: holdup assay
Set-up: key: below the threshold = too weak to quantify, mostly under pKd 3.1 to 4
Details: plain residues with an end cap or a label only (N-terminal biotin on a linker: ado-ado)

Sequence of FRMPD2_3, Q68DX3 (Q68DX3 1073-1166): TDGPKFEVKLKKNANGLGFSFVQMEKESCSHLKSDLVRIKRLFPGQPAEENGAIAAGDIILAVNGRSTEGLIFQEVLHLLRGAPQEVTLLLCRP

pKd	Binder
below the threshold	B1
below the threshold	B2
below the threshold	B3

Target: T12, HTRA4, P83105
Test: holdup assay
Set-up: key: below the threshold = too weak to quantify, mostly under pKd 3.1 to 4
Details: plain residues with an end cap or a label only (N-terminal biotin on a linker: ado-ado)

pKd	Binder
4.76	B1
below the threshold	B2
4.39	B3

Source: publication PMC9482650, “Quantitative fragmentomics allow affinity mapping of interactomes” (Nature Communications, 2022)
